Measurements taken from patent US20150266922.

Target: SUMO1 (UniProt P63165)
Sequence (P63165 1-97): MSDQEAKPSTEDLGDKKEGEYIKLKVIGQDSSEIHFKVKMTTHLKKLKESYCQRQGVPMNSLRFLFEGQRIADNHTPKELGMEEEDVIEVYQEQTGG

## recombinant DPP9V285A (insect cells)
  hydrolysis of GP-AMC by DPP9 V285A: the SUBA mutant DPP9V285A was not activated by SUMO1
